We go through one protein from doi:10.1101/2021.12.16.472979v1.

Substrate in this series: N[C@@H](Cc1ccccc1)C(=O)O
The series is described as follows: LC-MS decarboxylation assay, Michaelis-Menten fit. It is filed as biochemical, Enterococcus faecium. The note with it: 100 μM PLP, 200 mM sodium acetate pH 5.5, 100 nM enzyme, 37 °C.

B1: Efm_TyrDC (Enterococcus faecium) (protein)
chain: MKDMDIKAVFIGDKAENGPVYKMLLNKMVDEHLGWRENYIPSDMPAISEGDKLTPDYLATRDHMIEVLDEVSQRLRAGSIPWHSAGRYWGQMNAETLMPALLAYNYAMLWNPNNVALESSMATSQMEAEVGQDFASLFNMADGWGHIAADGSIANLEGLWYARCIKSIPLAVKEVLPEKVKNMSEWALLNLSVEEILEMTESFTDEEMDEVKAASSRSGKNIQKLGKWLVPQTKHYSWMKALDICGVGLDQMVAIPVQEDYRMDINALEKTIRELADQKIPILGVVAVVGTTEEGQVDSVDKIIQLREKLKDEGIYFYLHVDAAYGGYARSLFLNEAGEFVPYASLAEFFEEHHVFHHYVTIDKEVYEGFRAISEADSVTIDPHKMGYVPYAAGGIVIKHKNMRNIISYFAPYVFEKSVKAPDMLGAYILEGSKAGATAAAVWTAHRVLPLNVTGYGQLIGASIEAAQRFREFLEQLHFTVKGKTIEVYPLNHPDFNMVNWVFKVQDCTDLNAINELNEKMFDRSSYMDGDVYGERFITSHTTFTQEDYGDSPIRFIERMGLSKEEWQKEQQITLLRAAIMTPYLNDDRIFNFYTKEIAKAMEKKLNEIIK
On to B1, for which the Km is given as 8.5 mM.
